This is an account of results in the supplement of paper PMC10567573.

This data set is described as follows: protein stability index of a GFP-peptide fusion (GPS, HEK-293T) (PSI 1-6); higher = more stable. To be noted: c terminus: a fixed tail appended.

± gives the standard deviation.
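Also: 24-mer peptide tiles fused after GFP, lentivirally expressed, FACS-sorted into six equal bins by GFP/DsRed ratio, decoded by Illumina sequencing, PSI is the read-weighted mean bin number.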

The sequence KNGKKWEILNFNQYYEACRKAAKS [ACSBG2] showed a protein stability index (treatment: DMSO) of 2.49 ± 0.21 and a protein stability index (treatment: MLN4924 1 uM, 8 h) of 2.62 ± 0.57.
Regarding KPQDSSQPSDRLMTEKQQEEAEWE [CEP70], the protein stability index (treatment: DMSO) worked out at 5.59 ± 0.4 and the protein stability index (treatment: MLN4924 1 uM, 8 h) was found to be 5.45 ± 0.46.
For KPVVNVSYRPAYDQGGPVEILPFL [DUSP5] the same measures were 2.62 ± 0.14 and 2.66 ± 0.39.
For KPYTCSVCGKSFSRTTCLFLHLRT [ZNF8], the protein stability index by setting is: (treatment: DMSO) 2.54 ± 0.39; (treatment: MLN4924 1 uM, 8 h) 2.89 ± 0.7.
Regarding KQEMGTYLRFIVSRMKERAIDLNK [ZMYND11], the protein stability index was 2.9 ± 0.73 (treatment: DMSO) and 2.71 ± 0.69 (treatment: MLN4924 1 uM, 8 h).
Taken in the same sequence, the figures for KQFHNEVLKAHNEYRQKHGVPPLK [GLIPR2] were 3.79 ± 0.19 and 3.72 ± 0.17.
With KRITASEALKHPWICQRSTVASMM [CAMK2D], the protein stability index (treatment: DMSO) was 2.61 ± 0.05 and the protein stability index (treatment: MLN4924 1 uM, 8 h) came out at 2.67 ± 0.27.
For KRLKHKDDSVMKATQQARKRNFIS [C22orf31] the same measures were 4.11 ± 0.27 and 4.19 ± 0.23.
For KRPARLHTKPSQAPAVEVAPAGAS [NOP53], the protein stability index by setting is: (treatment: DMSO) 4.77 ± 0.42; (treatment: MLN4924 1 uM, 8 h) 4.96 ± 0.19.
Take KRQAVNKAVANMQGEMDRKCKQVK [ZMYND11]: the protein stability index by setting is: (treatment: DMSO) 4.6 ± 0.68; (treatment: MLN4924 1 uM, 8 h) 4.71 ± 0.45.
For KRSSRRVQRHNSFSPNSPQFNVSG [NECAB1] the same measures were 4.12 ± 0.19 and 4.27 ± 0.13.
KSEGLSGRVLRKLPFLAHALYVQA [TRIP13]: the protein stability index was 2.3 ± 0.58 (treatment: DMSO) and 2.13 ± 0.42 (treatment: MLN4924 1 uM, 8 h).
Take KSKPDRKRAESDSRKSSIPNNKEI [PTPRD]: the protein stability index is, setting by setting: (treatment: DMSO) 5.329 ± 0.046; (treatment: MLN4924 1 uM, 8 h) 5.46 ± 0.16.
Turning to KTKKLYIDSRARRNLGSINTELQD [SEC22B], the protein stability index was determined as 3.87 ± 0.22 (treatment: DMSO) and 4.08 ± 0.21 (treatment: MLN4924 1 uM, 8 h).
Turning to KVASSDLVNMGISVVSYTLKDIHD [FLOT1], the protein stability index (treatment: DMSO) is 2.34 ± 0.17 and the protein stability index (treatment: MLN4924 1 uM, 8 h) was 2.37 ± 0.29.
Taken in the same sequence, the figures for KWMERYLRDKTVMIIVAISPKYKQ [TRAF3IP2] were 2.65 ± 0.97 and 2.44 ± 0.34.
Consider KYEHELALRQTVEADVNGLRRVLD [KRT16], for which the protein stability index by setting is: (treatment: DMSO) 3.98 ± 0.15; (treatment: MLN4924 1 uM, 8 h) 4.09 ± 0.15.
On to KYSLPWTTLDEFPLTRLGQLKACT [KCNG1], for which the protein stability index is, setting by setting: (treatment: DMSO) 2.42 ± 0.25; (treatment: MLN4924 1 uM, 8 h) 2.61 ± 0.34.
Taken in the same sequence, the figures for LAATTSMAYAKLMLTVMTKYQANI [FANCE] were 2.92 ± 0.32 and 3.26 ± 0.72.
Taken in the same sequence, the figures for LAGSESLPVETLGPASRMDPESER [PBXIP1] were 5.2 ± 0.18 and 5.21 ± 0.21.
For LATQEPTDNQVRLRKRKEIREDRD [DLC1] the same measures were 5.41 ± 0.24 and 5.39 ± 0.16.
For LAVRSLRRVGGSRILLRMTLGREV [NLN], the protein stability index (treatment: DMSO) stood at 2.73 ± 0.68 and the protein stability index (treatment: MLN4924 1 uM, 8 h) turned out to be 2.37 ± 0.55.
With LDAMNYHLMPFRQHCRQSLASRIR [KLHL14], the protein stability index by setting is: (treatment: DMSO) 2.48 ± 0.46; (treatment: MLN4924 1 uM, 8 h) 2.2 ± 0.24.
For LDGHTISDLSRSSRGELIPISPST [MYBL2], the protein stability index reads like this: (treatment: DMSO) 4.14 ± 0.13; (treatment: MLN4924 1 uM, 8 h) 4.33 ± 0.3.
For LDSNGAGEKSENNSSNSDIVHVEK [BCL2L13], the protein stability index amounted to 5.57 ± 0.22 (treatment: DMSO) and 5.6 ± 0.13 (treatment: MLN4924 1 uM, 8 h).
In the case of LDVWLSGGNDLCVWNRKLDLLCKT [WDR41], the protein stability index by setting is: (treatment: DMSO) 2.28 ± 0.35; (treatment: MLN4924 1 uM, 8 h) 2.19 ± 0.31.
For LEHGSIYIPSSYVDSHHEYPAMTF [ESR2] the same measures were 2.19 ± 0.18 and 2.06 ± 0.56.
Taken in the same sequence, the figures for LEQRGTHAVVGVATALAPLQTDHY [SPSB2] were 3.6 ± 0.31 and 3.65 ± 0.15.
Taken in the same sequence, the figures for LEYLYTANVTLSLDTVEEVLSVSK [KLHL14] were 2.41 ± 0.66 and 1.96 ± 0.36.
Take LFEDIVAREYYSEADASHCIQQIL [CAMK2A]: the protein stability index (treatment: DMSO) was determined as 2.36 ± 0.069 and the protein stability index (treatment: MLN4924 1 uM, 8 h) came to 2.62 ± 0.35.
The sequence LFFVPCIFLYARPNSTFPIDKSMT [OR4A15] registered a protein stability index (treatment: DMSO) of 3.15 ± 0.51 and a protein stability index (treatment: MLN4924 1 uM, 8 h) of 3.43 ± 1.4.
Regarding LFLMECEESPNGSEGACEKEKQSR [RHOBTB1], the protein stability index came out at 4.69 ± 0.44 (treatment: DMSO) and 4.83 ± 0.17 (treatment: MLN4924 1 uM, 8 h).
For LFSIAPLIYGSMEMFPAAQQLYRH [JAGN1] the same measures were 2.55 ± 0.41 and 2.6 ± 0.57.
With LFVLLSVVCVLLNLAGFILGCQGA [FAM189A2], the protein stability index (treatment: DMSO) was found to be 3.15 ± 0.38 and the protein stability index (treatment: MLN4924 1 uM, 8 h) turned out to be 3.25 ± 0.61.
Taken in the same sequence, the figures for LGACVAPGGNLIVELARYLVDVRQ [DNAAF3] were 2.57 ± 0.44 and 2.12 ± 0.2.
For LGFRAFSGSGNRLDGKKKGVEPSP [UFD1] the same measures were 4.25 ± 0.46 and 3.94 ± 0.29.
